From patent US20250296984A1 (THELPER, published 2025)
Like-named read-outs stand apart in the source and are kept apart here.

Columns and labels:
[1] = molecular target: T1, US28 of HCMV strain TB40/E fused to a C-terminal 6His tag (human cytomegalovirus (HCMV) strain …, UniProt P69332 1-354); assay: flow cytometry, CHO cells (FIG. 21D)
T1 construct: also called TB40/E form of US28
T1 chain: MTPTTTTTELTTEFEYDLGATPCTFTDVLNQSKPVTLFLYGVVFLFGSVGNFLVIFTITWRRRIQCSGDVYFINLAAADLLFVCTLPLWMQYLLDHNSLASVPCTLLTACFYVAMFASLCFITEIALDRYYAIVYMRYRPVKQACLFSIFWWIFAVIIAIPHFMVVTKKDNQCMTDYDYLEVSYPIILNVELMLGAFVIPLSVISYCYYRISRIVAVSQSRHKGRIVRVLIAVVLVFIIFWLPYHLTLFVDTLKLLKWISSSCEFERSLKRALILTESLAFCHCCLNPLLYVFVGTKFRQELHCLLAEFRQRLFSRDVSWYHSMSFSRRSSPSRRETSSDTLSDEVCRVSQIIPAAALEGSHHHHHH

[2] = molecular target: T2, mutated US28 (artificial form with all known US28 mutations) fused to a C-terminal 6His tag (artificial variant of human …, UniProt P69332 1-354); assay: flow cytometry, CHO-mutated strain against control CHO cells (FIG. 21B)
T2 construct: also called mutated strain; CHO-mutated strain
T2 chain: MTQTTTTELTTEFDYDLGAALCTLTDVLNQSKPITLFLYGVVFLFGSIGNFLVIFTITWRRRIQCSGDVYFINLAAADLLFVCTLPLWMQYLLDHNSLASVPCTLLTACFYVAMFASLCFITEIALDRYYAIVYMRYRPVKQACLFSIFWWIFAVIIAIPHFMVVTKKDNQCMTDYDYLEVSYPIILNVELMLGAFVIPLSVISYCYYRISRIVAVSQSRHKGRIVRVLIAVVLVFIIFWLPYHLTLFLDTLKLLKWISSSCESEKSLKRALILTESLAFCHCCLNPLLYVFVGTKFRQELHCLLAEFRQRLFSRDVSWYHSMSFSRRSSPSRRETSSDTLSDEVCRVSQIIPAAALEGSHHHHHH

[3] = molecular target: T3, US28 of HCMV strain VHL/E fused to a C-terminal 6His tag (human cytomegalovirus (HCMV) strain …, UniProt P69332 1-354); assay: flow cytometry, processed data of FIG. 33; reference
T3 construct: also called VHL/E-encoded US28
T3 chain: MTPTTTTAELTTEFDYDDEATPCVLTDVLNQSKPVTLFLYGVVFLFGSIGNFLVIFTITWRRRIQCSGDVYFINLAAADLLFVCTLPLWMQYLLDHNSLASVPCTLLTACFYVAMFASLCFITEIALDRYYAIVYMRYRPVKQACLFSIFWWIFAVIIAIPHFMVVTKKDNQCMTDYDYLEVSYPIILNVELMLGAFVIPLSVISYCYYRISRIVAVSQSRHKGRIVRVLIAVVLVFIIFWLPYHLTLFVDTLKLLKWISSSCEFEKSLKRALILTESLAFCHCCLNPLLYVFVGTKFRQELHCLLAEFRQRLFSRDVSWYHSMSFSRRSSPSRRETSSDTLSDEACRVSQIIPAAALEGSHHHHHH

[4] = molecular target: T4, US28 of HCMV strain DB fused to a C-terminal 6His tag (human cytomegalovirus (HCMV) strain DB, UniProt P69332 1-354); assay: flow cytometry, CHO cells expressing US28 of strain DB
T4 chain: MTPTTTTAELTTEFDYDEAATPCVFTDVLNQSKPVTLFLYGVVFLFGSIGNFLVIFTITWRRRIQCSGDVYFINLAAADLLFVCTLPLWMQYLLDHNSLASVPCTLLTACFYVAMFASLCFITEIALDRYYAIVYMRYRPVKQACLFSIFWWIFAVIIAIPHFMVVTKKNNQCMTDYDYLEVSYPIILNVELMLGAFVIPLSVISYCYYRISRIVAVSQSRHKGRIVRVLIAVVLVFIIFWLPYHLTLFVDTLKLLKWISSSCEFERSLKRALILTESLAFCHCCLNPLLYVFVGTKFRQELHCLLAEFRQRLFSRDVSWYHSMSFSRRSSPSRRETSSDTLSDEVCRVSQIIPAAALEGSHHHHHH

[5] = molecular target: T1, US28 of HCMV strain TB40/E fused to a …; assay: flow cytometry, transfected HEK Phoenix cells, 6.76 nM
[6] = molecular target: T3, US28 of HCMV strain VHL/E fused to a …; assay: as above
[7] = molecular target: T5, US28 of HCMV strain Merlin fused to a C-terminal 6His tag (human cytomegalovirus (HCMV) strain …, UniProt F5HF62 1-354); assay: as above
T5 construct: also called Merlin-encoded US28
T5 sequence: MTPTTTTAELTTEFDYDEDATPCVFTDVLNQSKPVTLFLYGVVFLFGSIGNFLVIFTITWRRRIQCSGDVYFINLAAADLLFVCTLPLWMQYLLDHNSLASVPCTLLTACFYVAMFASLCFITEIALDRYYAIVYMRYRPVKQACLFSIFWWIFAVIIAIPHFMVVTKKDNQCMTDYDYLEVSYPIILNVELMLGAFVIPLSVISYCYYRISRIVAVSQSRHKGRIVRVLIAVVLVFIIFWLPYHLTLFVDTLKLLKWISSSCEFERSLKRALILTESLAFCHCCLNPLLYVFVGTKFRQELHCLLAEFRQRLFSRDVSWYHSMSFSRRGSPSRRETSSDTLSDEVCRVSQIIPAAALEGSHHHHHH

[8] = molecular target: T4, US28 of HCMV strain DB fused to a …; assay: as above
[9] = molecular target: T1, US28 of HCMV strain TB40/E fused to a …; assay: flow cytometry, CHO cells expressing US28 of strain TB40/E
[10] = molecular target: T2, mutated US28 (artificial form with all …); assay: flow cytometry, CHO cells expressing the mutated US28
[11] = molecular target: T1, US28 of HCMV strain TB40/E fused to a …; assay: flow cytometry, CHO cells (FIG. 21C)
[12] = molecular target: T1, US28 of HCMV strain TB40/E fused to a …; assay: flow cytometry, processed data of FIG. 33
[13] = molecular target: T5, US28 of HCMV strain Merlin fused to a …; assay: flow cytometry, processed data of FIG. 33
[14] = molecular target: T4, US28 of HCMV strain DB fused to a …; assay: flow cytometry, processed data of FIG. 33
[15] = molecular target: T4, US28 of HCMV strain DB fused to a …; assay: flow cytometry, CHO-US28 against control CHO cells
[16] = molecular target: T4, US28 of HCMV strain DB fused to a …; assay: flow cytometry, CHO-US28 against control CHO cells
[17] = molecular target: T6, US28 of HCMV strain Ad169 (human cytomegalovirus (HCMV) strain …, UniProt P69332 1-354); assay: flow cytometry, HCMV Ad169 infected against Mock MRC-5 cells
T6 sequence: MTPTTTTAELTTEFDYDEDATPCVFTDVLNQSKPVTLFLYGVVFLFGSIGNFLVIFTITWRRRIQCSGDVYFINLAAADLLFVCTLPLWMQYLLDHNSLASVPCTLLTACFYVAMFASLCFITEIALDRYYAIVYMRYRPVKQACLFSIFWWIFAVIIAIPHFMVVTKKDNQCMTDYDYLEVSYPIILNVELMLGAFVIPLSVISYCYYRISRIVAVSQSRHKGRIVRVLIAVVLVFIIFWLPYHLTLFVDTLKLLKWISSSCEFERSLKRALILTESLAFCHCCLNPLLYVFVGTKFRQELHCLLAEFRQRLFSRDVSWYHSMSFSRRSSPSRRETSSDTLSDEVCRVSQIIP

B1: bivalent VUN100 (VHH)
chain: EVQLVESGGGLVQPGGSLRLACAVSGPGLIFKFTGVAWYRRQVPGAKRGLVALITGDGATRYGDSVKGRFTVSRDIAAKRVYLEMNDLRSEDTAVYYCKTGEYWGQGTQVTVSSGGGGSGGGGSGGGGSGGGGSGGGGSGGGGSEVQLVESGGGLVQPGGSLRLACAVSGPGLIFKFTGVAWYRRQVPGAKRGLVALITGDGATRYGDSVKGRFTVSRDIAAKRVYLEMNDLRSEDTAVYYCKTGEYWGQGTQVTVSSEQKLISEEDLHHHHHH
notes: also called VUN100b; BvVUN100
- % retention of binding activity between the DB and TB40/E forms [1]: ≤ 60%
- specificity (US28 cells over control cells) [2]: 2.43 fold
- variation in binding relative to US28 as encoded by VHL/E [3]: 0
- % of cells bound [4]: 9.24%
- binding value (Preliminary Binding Data) [5]: 0.16
- binding value (Preliminary Binding Data) [6]: 2.29
- binding value (Preliminary Binding Data) [7]: 0.71
- binding value (Preliminary Binding Data) [8]: 0.62
- % of cells bound [9]: 5.2%
- % of cells bound [10]: 2.58%
- % change in absolute binding between the DB and TB40/E forms [11]: > 40%
- variation in binding relative to US28 as encoded by VHL/E [12]: -14.8
- variation in binding relative to US28 as encoded by VHL/E [13]: -2.41
- variation in binding relative to US28 as encoded by VHL/E [14]: -2.92

B2: monovalent VUN100 (VHH)
VHH: EVQLVESGGGLVQPGGSLRLACAVSGPGLIFKFTGVAWYRRQVPGAKRGLVALITGDGATRYGDSVKGRFTVSRDIAAKRVYLEMNDLRSEDTAVYYCKTGEYWGQGTQVTVSS
notes: also called Mv VUN100; VUN100 Ab
- % retention of binding activity between the DB and TB40/E forms [1]: ≤ 60%
- specificity (US28 cells over control cells) [2]: < 1 fold
- % of cells bound [4]: 6.91%
- % of cells bound [9]: 4.33%
- % of cells bound [10]: 1.41%
- binding result [10]: no binding
- % change in absolute binding between the DB and TB40/E forms [11]: > 35%

B3: US28-13-5G6-1D3 (antibody, V domains shown)
VH: EVKLVESGGGLVQPGGSLRLACATSGFTFTDYYMSWVRQPPGKALEWLGFIRSKANGYTTEYSASVKGRFTISRDNSQSILYLQMNTLRSEDSATYYCARDERRTAWLAYWGQGTLVTVSA
VL: DVLMTQTPLSLPVSLGDQASISCRSSQSIVHSNGNTYLDWYLQKPGQSPKLLIYKVSNRFSGVPDRFSGSGSGTDFTLKISRVEAEDLGVYYCFQGSHVPTWTFGGGTKLEIKR
notes: also called US28-13-5G6-1D3 rAb; 13-5G6-1D3 clone
- binding specificity comparative to the specificity displayed by VUN100 [15]: 1.65 fold
- % retention of binding activity between the DB and TB40/E forms [1]: ~100%
- specificity (US28 cells over control cells) [2]: ~15 fold
- % of cells bound [4]: 16.6%
- % of cells bound [9]: 18.2%
- % of cells bound [10]: 12.9%
- binding specificity comparative to the specificity displayed by VUN100 [16]: 1.65 fold
- % change in absolute binding between the DB and TB40/E forms [11]: < 10%
- fold binding, infected over uninfected cells [17]: ~16 fold
